Test results reported in the supplement of paper PMC9876800.

System: peptide library, one residue held at a place counted from the S/T acceptor
Assay: relative phosphorylation of the sub-library (ratio to the mean residue at this position); higher = residue favoured
Conditions: human
Procedure, shortened: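 Relative sub-library phosphorylation is a ratio to the mean residue at the same position. Purified recombinant kinases were incubated under kinase-specific conditions with biotinylated degenerate peptide sub-libraries, each fixing one residue at one position around a central Ser/Thr, using 50 μM peptide and 50 μM ATP spiked with γ-32P-ATP for 90 min. Spots captured on streptavidin membranes were phosphorimaged and quantified by densitometry.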

Chain of SNRK, construct: aa1-505 (Q9NRH2 1-505, looked up): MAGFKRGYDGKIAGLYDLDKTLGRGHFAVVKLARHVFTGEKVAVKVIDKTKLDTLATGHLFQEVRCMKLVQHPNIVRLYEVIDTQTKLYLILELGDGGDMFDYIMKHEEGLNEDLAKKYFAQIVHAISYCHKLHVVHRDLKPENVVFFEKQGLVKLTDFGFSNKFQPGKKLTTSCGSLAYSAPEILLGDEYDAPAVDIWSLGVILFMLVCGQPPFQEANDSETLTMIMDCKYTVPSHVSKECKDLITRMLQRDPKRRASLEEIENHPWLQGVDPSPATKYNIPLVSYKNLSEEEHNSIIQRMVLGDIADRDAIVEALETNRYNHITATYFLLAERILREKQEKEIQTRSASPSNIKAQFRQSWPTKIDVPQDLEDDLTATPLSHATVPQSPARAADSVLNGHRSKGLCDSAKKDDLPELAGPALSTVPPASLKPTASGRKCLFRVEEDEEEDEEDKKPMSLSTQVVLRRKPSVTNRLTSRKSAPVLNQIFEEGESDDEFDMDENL
Chain of SBK1, construct: Full length (Q52WX2 whole entry, looked up): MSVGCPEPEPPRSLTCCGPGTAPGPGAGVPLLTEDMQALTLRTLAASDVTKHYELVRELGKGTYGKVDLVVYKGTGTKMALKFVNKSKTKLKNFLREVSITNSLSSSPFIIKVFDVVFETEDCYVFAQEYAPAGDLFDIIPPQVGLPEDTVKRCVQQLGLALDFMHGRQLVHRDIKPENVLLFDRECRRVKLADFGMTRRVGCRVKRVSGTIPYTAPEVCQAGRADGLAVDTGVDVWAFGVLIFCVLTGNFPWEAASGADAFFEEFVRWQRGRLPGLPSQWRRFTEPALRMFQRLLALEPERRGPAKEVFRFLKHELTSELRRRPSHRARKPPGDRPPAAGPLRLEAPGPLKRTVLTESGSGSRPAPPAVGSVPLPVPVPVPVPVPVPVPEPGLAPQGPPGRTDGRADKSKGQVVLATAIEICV
Chain of RPS6KA2, construct: Full length (Q15349 whole entry, looked up): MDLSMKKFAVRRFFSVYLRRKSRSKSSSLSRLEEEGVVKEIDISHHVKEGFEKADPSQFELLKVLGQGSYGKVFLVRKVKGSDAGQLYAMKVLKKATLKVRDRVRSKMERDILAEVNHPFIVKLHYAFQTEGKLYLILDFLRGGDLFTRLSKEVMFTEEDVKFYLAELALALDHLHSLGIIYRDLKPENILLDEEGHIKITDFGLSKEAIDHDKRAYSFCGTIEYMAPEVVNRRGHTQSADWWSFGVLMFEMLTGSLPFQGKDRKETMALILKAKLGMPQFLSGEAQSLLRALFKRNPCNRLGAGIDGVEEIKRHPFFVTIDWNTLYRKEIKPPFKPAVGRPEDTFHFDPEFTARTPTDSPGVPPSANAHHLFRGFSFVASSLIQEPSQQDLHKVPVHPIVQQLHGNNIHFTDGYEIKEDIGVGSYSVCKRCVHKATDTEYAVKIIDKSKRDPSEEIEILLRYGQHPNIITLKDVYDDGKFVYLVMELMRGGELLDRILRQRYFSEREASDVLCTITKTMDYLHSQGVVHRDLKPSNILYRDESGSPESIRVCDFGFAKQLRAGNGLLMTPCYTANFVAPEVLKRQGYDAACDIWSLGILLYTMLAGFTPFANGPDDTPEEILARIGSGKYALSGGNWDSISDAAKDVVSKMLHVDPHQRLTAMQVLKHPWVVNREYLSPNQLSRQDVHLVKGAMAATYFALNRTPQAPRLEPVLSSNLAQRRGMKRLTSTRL
Chain of STK3, construct: Full length (Q13188 whole entry, looked up): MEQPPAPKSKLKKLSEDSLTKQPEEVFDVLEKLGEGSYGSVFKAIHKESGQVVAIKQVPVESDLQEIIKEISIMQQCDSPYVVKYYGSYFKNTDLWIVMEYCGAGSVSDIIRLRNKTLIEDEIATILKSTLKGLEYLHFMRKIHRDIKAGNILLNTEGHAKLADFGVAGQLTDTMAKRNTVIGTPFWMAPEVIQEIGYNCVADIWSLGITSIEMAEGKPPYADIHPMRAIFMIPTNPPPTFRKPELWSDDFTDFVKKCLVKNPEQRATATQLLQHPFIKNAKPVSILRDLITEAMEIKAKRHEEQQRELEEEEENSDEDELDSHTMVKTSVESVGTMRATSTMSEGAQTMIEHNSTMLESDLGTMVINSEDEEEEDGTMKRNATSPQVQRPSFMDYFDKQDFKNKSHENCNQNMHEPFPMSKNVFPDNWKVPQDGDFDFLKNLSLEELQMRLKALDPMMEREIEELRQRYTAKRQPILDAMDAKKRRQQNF

RPS6KA2, construct: Full length (from UniProt Q15349)
relative phosphorylation
Conditions	at +1	at +2	at +3	at +4	at -1	at -2	at -3	at -4	at -5
A fixed	0.795	1.22	1.14	1.18	0.925	0.766	0.741	1.41	1.13
D fixed	0.457	0.669	0.976	0.77	0.569	0.763	0.455	0.572	0.435
E fixed	0.806	0.601	0.792	0.661	0.505	0.589	0.562	0.639	0.417
F fixed	1.32	0.708	0.99	0.844	0.752	0.54	0.373	0.851	0.915
G fixed	0.658	1.24	1.21	1.22	1.21	0.914	0.583	1.12	1.1
H fixed	1.31	1.66	1.19	1.32	1.18	1.26	0.672	1.1	1.11
I fixed	1.22	0.994	0.855	0.88	0.384	0.502	0.308	0.657	0.72
K fixed	0.972	1.04	1.03	1.22	1.5	2.21	1.47	1.58	2
L fixed	0.925	0.616	1.04	0.839	0.916	1.05	0.311	0.801	0.862
M fixed	1.09	0.742	0.912	0.887	1.12	0.761	0.449	0.916	0.715
N fixed	0.769	0.781	0.706	0.68	1.16	0.697	0.434	0.743	0.755
P fixed	0.338	0.794	1.04	1.27	1.58	0.467	0.632	0.984	0.865
Q fixed	0.925	0.566	0.717	0.916	0.861	0.879	0.603	0.956	0.702
R fixed	0.998	1.82	1.09	0.886	1.6	4.34	8.11	2.03	3.49
V fixed	1.75	1.11	0.92	0.819	0.683	0.35	0.365	0.786	0.713
W fixed	1.05	0.973	1.17	1.44	0.793	0.409	0.443	0.954	0.171
Y fixed	1.61	1.47	1.23	1.16	1.26	0.503	0.49	0.894	0.903
pThr fixed	1	0.781	1.22	1.03	0.307	0.308	0.269	0.637	0.391
pTyr fixed	1.55	1.05	1.25	0.999	0.657	0.368	0.555	0.636	0.526

SBK1, construct: Full length (from UniProt Q52WX2)
relative phosphorylation
Conditions	at +1	at +2	at +3	at +4	at -1	at -2	at -3	at -4	at -5
A fixed	0.96	0.91	0.834	0.989	0.983	1.24	0.407	1.08	0.746
D fixed	0.948	1.5	1.36	1.18	1.06	0.195	0.0944	0.269	0.195
E fixed	0.863	1.29	1.41	1.01	0.51	0.239	0.113	0.58	0.186
F fixed	0.737	1	0.925	0.851	0.808	0.782	0.161	0.922	2.33
G fixed	1.32	1.01	1.18	1.25	1.22	0.42	0.151	0.634	0.383
H fixed	0.958	1.36	1.11	1.14	1.38	1.02	0.37	1.29	0.5
I fixed	0.817	0.677	0.747	0.787	0.251	0.861	0.133	0.753	1.97
K fixed	0.485	0.494	0.622	0.828	0.982	1.71	1.76	1.99	0.506
L fixed	0.93	0.881	0.812	0.905	0.862	0.957	0.166	0.656	1.83
M fixed	0.852	0.849	0.793	0.983	1.15	1.75	0.184	0.998	1.09
N fixed	1.35	1.18	1.07	1.18	1.94	0.609	0.187	0.49	0.255
P fixed	2.53	1.08	1.64	1.69	1.74	0.27	0.188	0.275	1.15
Q fixed	1.12	1.17	1.04	0.994	1.07	1.21	0.581	1.18	0.597
R fixed	0.531	0.682	0.619	0.709	0.828	2.71	12	2.72	1.07
V fixed	0.953	0.693	0.77	0.699	0.401	1.27	0.153	0.95	1.22
W fixed	0.834	1.05	1.09	0.958	0.658	0.792	0.198	0.926	2.21
Y fixed	0.816	1.16	0.979	0.858	1.16	0.961	0.178	1.28	0.746
pThr fixed	0.598	1.1	1.02	1.4	0.203	0.181	0.105	0.261	0.193
pTyr fixed	0.717	1.35	1.36	1.6	0.745	0.215	0.0961	0.24	0.374

SNRK, construct: aa1-505 (from UniProt Q9NRH2)
relative phosphorylation
Conditions	at +1	at +2	at +3	at +4	at -1	at -2	at -3	at -4	at -5
A fixed	0.817	0.313	0.573	0.725	0.876	1.27	0.886	1.12	1.07
D fixed	0.421	0.215	0.614	0.532	0.73	0.301	0.279	0.572	0.568
E fixed	0.544	0.156	0.303	0.474	0.899	0.344	0.267	0.65	0.514
F fixed	1.81	3.56	2.34	1.08	0.944	1.31	0.898	0.944	1.27
G fixed	0.424	0.196	0.608	0.721	0.813	0.721	0.617	1.06	0.957
H fixed	0.863	0.998	1.16	0.969	1.1	1.47	1.04	1.15	1.1
I fixed	0.829	0.912	0.61	1.16	0.811	0.587	0.631	0.861	0.921
K fixed	1.09	0.431	0.691	1	1.06	1.12	1.99	1.42	1.31
L fixed	1.05	1.36	0.88	1.78	1.3	0.616	0.9	0.94	0.815
M fixed	1.4	1.34	0.934	1.18	1.31	0.91	0.979	1.03	0.937
N fixed	0.916	0.5	1.11	0.965	0.864	1.11	0.654	0.824	0.883
P fixed	0.171	0.276	0.354	1.02	0.823	0.426	0.613	0.748	0.807
Q fixed	1.35	0.567	0.661	1.16	1.08	1.14	0.908	0.942	0.89
R fixed	1.63	0.865	1.1	1.06	1.45	2.44	4.04	1.5	1.69
V fixed	0.936	0.585	0.531	0.924	0.93	0.78	0.498	0.911	0.996
W fixed	1.27	2.4	2.19	1.29	0.964	1.11	0.952	1.18	1.23
Y fixed	1.48	2.32	2.35	0.952	1.05	1.34	0.85	1.15	1.05
pThr fixed	0.702	0.42	0.371	0.477	0.913	0.613	0.526	0.7	0.726
pTyr fixed	0.777	0.522	0.548	0.425	1.03	0.512	0.522	0.735	0.73

STK3, construct: Full length (from UniProt Q13188)
relative phosphorylation
Conditions	at +1	at +2	at +3	at +4	at -1	at -2	at -3	at -4	at -5
A fixed	0.661	0.581	0.858	1.04	0.779	0.875	0.933	0.913	1.03
D fixed	0.346	0.503	0.732	0.903	2.13	1.3	1.5	1.32	1.46
E fixed	0.48	0.55	0.651	0.554	1.02	1.19	1.39	1.42	1.2
F fixed	0.902	0.508	0.855	0.762	0.651	1.64	0.919	1.07	0.976
G fixed	0.728	0.737	1.14	1.45	1.3	0.916	1.15	1.01	0.989
H fixed	0.58	1.48	1.11	1.13	1.13	1.18	0.957	1.07	1.15
I fixed	1.92	0.532	0.872	0.747	0.346	0.457	0.461	0.501	0.601
K fixed	0.419	2.81	1.41	1.26	1.17	0.444	0.517	0.821	0.784
L fixed	2.37	0.687	1.05	0.951	0.917	0.511	0.601	0.598	0.821
M fixed	2.76	0.687	0.886	1.02	0.823	0.877	0.727	0.789	0.817
N fixed	0.589	1.64	1.12	1.09	1.74	1.32	1.21	1.17	1.1
P fixed	0.26	0.733	1.1	1.18	0.706	0.555	1.08	0.926	1.23
Q fixed	0.761	1.28	1.06	1.24	1.26	0.953	1.15	1.32	1.06
R fixed	0.479	2.35	1.45	0.852	0.783	0.472	0.602	0.881	0.704
V fixed	1.09	0.747	0.827	0.871	0.511	0.514	0.64	0.809	0.89
W fixed	1.87	0.549	0.925	1.11	0.819	1.63	1.78	1.12	1.15
Y fixed	0.792	0.626	0.953	0.841	0.909	2.17	1.4	1.26	1.03
pThr fixed	1.04	1.05	0.9	0.916	0.849	1.04	1.18	1.08	1.06
pTyr fixed	0.632	0.544	0.771	0.75	0.599	1.56	1.26	1.2	1.24
